Experimental data: article PMC10922792 (Journal of molecular biology, 2024)

Target: T1, hPASK PAS-A domain (residues 131–237) (human, UniProt Q96RG2 131-237, uniformly 15N-labeled)
T1 sequence (looked up): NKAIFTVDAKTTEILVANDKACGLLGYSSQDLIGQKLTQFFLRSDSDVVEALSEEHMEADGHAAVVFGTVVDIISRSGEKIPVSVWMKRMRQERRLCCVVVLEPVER
Test: NMR titration

Kd: 2400 µM
Binder: MRGAAGLQREIQEGAYSGSCYHRDGL (peptide, UniProt Q96RG2 879-904, looked up) [PIM peptide (PASK AA 879–904)]
